Laboratory results: patent US20080181886A1, “Polypeptides That Bind Baff And/Or April” (Genentech, Inc., priority 2004, published 2008)

How the values were obtained:
[1] = biological target: T1, BAFF (Homo sapiens, UniProt Q9Y275); experiment: Competitive surface plasmon resonance, BAFF binding to immobilized BCMA-Fc; conditions: competition with immobilized BCMA-Fc
T1 construct: made in house
Excerpt: Surface plasmon resonance (SPR) measurements on a BIAcore 3000 instrument (Pharmacia Biosensor) were used to measure binding affinities of receptors to immobilized APRIL and BAFF by competition binding. […] In these experiments, receptors in solution competed for binding of ligand in solution at room temperature with immobilized BCMA-Fc. BCMA-Fc was coupled to flow cell 2 of a CM4 sensor chip, using the amine coupling protocol supplied by the manufacturer, at a high density (4500 resonance units) so that the initial rate of binding was linearly dependent on the concentration of free ligand. In all experiments flow cell 1 was ethanolamine-blocked and used as the reference cell. Washing with 10 mM HCl regenerated flow cells between sample injections. In order to determine the ligand concentration necessary to obtain the optimal for competition experiments, a preliminary binding study was performed for each ligand where two-fold dilutions of the ligand ranging from 400 nM to 6.25 nM were injected over the BCMA-Fc surface. The concentration of ligand that provided a slope of about 1 for the initial on-rate of the observed sensorgrams was selected as the fixed concentration to be used in the competition experiments. In all experiments where BAFE was the ligand, the buffer used was composed of 10 mM HEPES, pH 7.2, 150 mM NaCl, and 0.005% Tween-20. In all experiments where TRX-APRIL was the ligand selected, the buffer was composed of 20 mM Tris-HCl, pH 8.0, 200 mM NaCl, and 0.005% Tween-20. […] Samples were then passed over the BCMA-Fc-coupled surface. A linear fit of the initial on-rate of the observed sensorgrams was used to calculate the binding rate (V). The IC50 values were calculated using a four-parameter curve fit (y=((m1−m4)/(1+(m0/m3)̂m2))+m4) of the initial binding rates for the receptor/control (Vi/Vo) as a function of receptor concentration.

[2] = biological target: T2, APRIL (Mus musculus, UniProt Q9D777); experiment: Competitive surface plasmon resonance, APRIL binding to immobilized BCMA-Fc; parameters: species or system murine; conditions: competition with immobilized BCMA-Fc
T2 construct: made in house
T2 sequence (Q9D777 105-241): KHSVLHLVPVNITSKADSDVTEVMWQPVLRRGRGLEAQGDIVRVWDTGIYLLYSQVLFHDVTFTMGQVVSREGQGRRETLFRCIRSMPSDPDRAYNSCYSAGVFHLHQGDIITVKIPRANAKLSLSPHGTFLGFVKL
Excerpt: Surface plasmon resonance (SPR) measurements on a BIAcore 3000 instrument (Pharmacia Biosensor) were used to measure binding affinities of receptors to immobilized APRIL and BAFF by competition binding. […] In these experiments, receptors in solution competed for binding of ligand in solution at room temperature with immobilized BCMA-Fc. BCMA-Fc was coupled to flow cell 2 of a CM4 sensor chip, using the amine coupling protocol supplied by the manufacturer, at a high density (4500 resonance units) so that the initial rate of binding was linearly dependent on the concentration of free ligand. In all experiments flow cell 1 was ethanolamine-blocked and used as the reference cell. Washing with 10 mM HCl regenerated flow cells between sample injections. In order to determine the ligand concentration necessary to obtain the optimal for competition experiments, a preliminary binding study was performed for each ligand where two-fold dilutions of the ligand ranging from 400 nM to 6.25 nM were injected over the BCMA-Fc surface. […] The IC50 values were calculated using a four-parameter curve fit (y=((m1−m4)/(1+(m0/m3)̂m2))+m4) of the initial binding rates for the receptor/control (Vi/Vo) as a function of receptor concentration.

[3] = biological target: T1, BAFF; experiment: Competitive ELISA, BAFF; assay type: binding; conditions: data not shown
[4] = biological target: T2, APRIL; experiment: Competitive ELISA, APRIL; assay type: binding, murine; conditions: data not shown
[5] = biological target: T2, APRIL; experiment: NNS phage library of TACI CRD2 (positions 78, 79, 84, 92), APRIL selection; assay type: binding, murine; conditions: amino acid at position F78; after 3 rounds of sorting; large F′ = favorable
Protocol: (§1) NNS library construction and sorting.
(§2) This new phage library was subjected to sorting against either BAFF, APRIL or the display target antibody. After 3 rounds of sorting, approximately 48 clones were picked from each selection and the DNA sequences of the phage clones were determined. […] The normalized F′ value corrects for display bias and is calculated as the percent occurrence to percent degeneracy ratio for ligand selection divided by the percent occurrence to percent degeneracy ratio for display efficiency. Percent occurrence is calculated by dividing the number of times a particular amino acid appeared at a particular position by the total number of amino acids sequenced at that position followed by multiplying by 100. Percent degeneracy is calculated by dividing the degeneracy in code for a particular amino acid divided by the total degeneracy possible at that position followed by multiplying by 100 (e.g., if only A, G and I were selected, total degeneracy possible would be 5).

[6] = biological target: T1, BAFF; experiment: NNS phage library of TACI CRD2 (positions 78, 79, 84, 92), BAFF selection; assay type: binding; conditions: amino acid at position F78; after 3 rounds of sorting; large F′ = favorable
Protocol: as §1, §2

T1 sequence (Q9Y275 82-285 limits assumed): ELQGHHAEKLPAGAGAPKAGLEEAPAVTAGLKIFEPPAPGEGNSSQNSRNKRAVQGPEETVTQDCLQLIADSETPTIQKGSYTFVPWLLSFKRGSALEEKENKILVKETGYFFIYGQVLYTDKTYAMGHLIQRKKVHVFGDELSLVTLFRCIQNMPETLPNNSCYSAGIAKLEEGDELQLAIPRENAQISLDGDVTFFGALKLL

TACI_d1: first CRD of TACI (residues 32-67), expressed in E. coli (RSCPEEQYWDPLLGTCMSCKTICNHQSQRTCAAFCR)
IC50 for BAFF, in words [1]: in the micromolar range
affinity for BAFF, comparison in words [1]: an interaction was observed
IC50 for APRIL, in words [2]: in the micromolar range

TACI_d2: second cysteine-rich domain (CRD2, residues 68-109) of TACI, with four additional residues (GSPW) at the N-terminus (GSPWSLSCRKEQGKFYDHLLRDCISCASICGQHPKQCAYFCENKLR)
binding to BAFF, in words [3]: sufficient for high-affinity binding
binding to APRIL, in words [4]: sufficient for high-affinity binding

TACI CRD1 Loop Swap: human TACI CRD1 (R32-R67) with residues NHQSQRT substituted by GQHPKQ of hTACI CRD2 (RSCPEEQYWDPLLGTCMSCKTICGQHPKQCAAFCR)
affinity for BAFF, comparison in words [1]: increased TACI CRD1 affinity
affinity for APRIL, comparison in words [2]: increased TACI CRD1 affinity

F78F: phage-displayed TACI CRD2, wild-type F retained at position 78 (NNS library) (SLSCRKEQGKFYDHLLRDCISCASICGQHPKQCAYFCENKLR; CRD2 phage-displayed; UniProt O14836 68-109, looked up, fragment)
F′ APRIL F78 [5]: 2
F′ BAFF F78 [6]: 3
